Source: PMC9453702, “Structure-function analysis of enterovirus protease 2A in complex with its essential host factor SETD3” (Nature Communications, 2022)
Positions count from the first letter of the chain named. Numbers in names are those of the source.

Legend:
[1] = target: 2xStrep-tagged catalytically dead CV-B3 2A, expressed in human cells; experiment: FLAG affinity purification with label-free quantitative MS; details: co-transfected CV-B3 2A; four biologically independent experiments; parent: est. 5.5e7; read off a plot
actin (Homo sapiens) = actin (Homo sapiens) (UniProt P60709); details: cited from earlier work
[2] = target: coxsackievirus B3 protease 2A with C-terminal His6-tag (for biolayer interferometry); experiment: biolayer interferometry; details: parent: 0.0051 s-1
[3] = target: T1, human SETD3, wild type (recombinant, tag cleaved) (human, UniProt Q86TU7 1-594); experiment: BLI; competition: His-tagged 2A on Ni-NTA biosensors, 3-fold dilution series of actin peptide (40 nM to 10 µM) with SETD3 constant at 310 nM; 20 mM Tris/HCl pH 8.0, 150 mM NaCl, 5% glycerol, 1 mM DTT; maximum binding against peptide concentration; details: both partners purified
T1 construct: SETD3, actin histidine methyltransferase, human; codon-optimised gene in vector 2G-T; also called WT SETD3; SETD3 WT; source: E. coli BL21*(DE3), purified (Glutathione Sepharose 4B, TEV digest, His-Trap FF flow-through; Superdex 200 Increase for BLI)
T1 sequence: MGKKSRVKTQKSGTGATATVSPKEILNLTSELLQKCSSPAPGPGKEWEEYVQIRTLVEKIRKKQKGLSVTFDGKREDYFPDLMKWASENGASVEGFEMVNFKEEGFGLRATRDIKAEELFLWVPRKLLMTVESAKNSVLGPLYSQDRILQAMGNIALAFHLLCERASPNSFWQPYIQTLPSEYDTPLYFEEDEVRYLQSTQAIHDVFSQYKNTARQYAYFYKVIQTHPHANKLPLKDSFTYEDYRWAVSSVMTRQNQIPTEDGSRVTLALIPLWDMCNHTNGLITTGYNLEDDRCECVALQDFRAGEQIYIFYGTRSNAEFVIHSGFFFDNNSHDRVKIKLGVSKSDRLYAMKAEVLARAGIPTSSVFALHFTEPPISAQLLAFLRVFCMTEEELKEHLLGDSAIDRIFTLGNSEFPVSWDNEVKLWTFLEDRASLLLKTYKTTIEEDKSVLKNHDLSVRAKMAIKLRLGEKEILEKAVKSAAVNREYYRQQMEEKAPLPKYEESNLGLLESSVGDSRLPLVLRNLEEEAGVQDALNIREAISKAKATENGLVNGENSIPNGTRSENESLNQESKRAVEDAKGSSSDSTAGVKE

[4] = target: coxsackievirus B3 protease 2A with C-terminal His6-tag (for biolayer interferometry) (coxsackievirus B3 (Nancy strain)); experiment: BLI; Octet RED384; His-tagged 2A loaded on Ni-NTA biosensors at 20 µg/ml, SETD3 variants in solution at several concentrations; 20 mM Tris/HCl pH 8.0, 150 mM NaCl, 5% glycerol, 1 mM DTT; global fit with Rmax unlinked
[5] = target: coxsackievirus B3 (Nancy strain) protease 2A, C107A (recombinant, tag cleaved) (coxsackievirus B3 (Nancy strain))

Molecule “FLAG-tagged SETD3, wild type, expressed in human cells (from UniProt Q86TU7) Q257A; V266D” has a response [1] of 1.7e+06.

With “FLAG-tagged SETD3, wild type, expressed in human cells (from UniProt Q86TU7) Q257A; V266D; Y288P” the response [1] was 900000.

Molecule “FLAG-tagged SETD3, wild type, expressed in human cells (from UniProt Q86TU7) Q257A; V266D; Y288P; G361R” has a response [1] of 450000.

For SETD3 (from UniProt Q86TU7), the Kd (actin (Homo sapiens)) is given as 170 nM.

Work on “human SETD3, wild type (recombinant, tag cleaved) (from UniProt Q86TU7) G361R” yielded a koff [2] of 0.0116 s⁻¹.

“human SETD3, wild type (recombinant, tag cleaved) (from UniProt Q86TU7) G361R; F409A” gave a koff [2] of 0.0131 s⁻¹.

Work on “human SETD3, wild type (recombinant, tag cleaved) (from UniProt Q86TU7) Q257A; V266D” yielded a koff [2] of 0.45 s⁻¹.

“human SETD3, wild type (recombinant, tag cleaved) (from UniProt Q86TU7) Y288P” gave a koff [2] of 0.32 s⁻¹.

B1: synthetic actin peptide, residues 66-81, H73L (peptide)
peptide: TLKYPIELGIVTNWDD
notes: also called actin peptide 66-81 with His73 replaced by leucine; source: synthetic peptide
B1 gave an IC50 [3] of 1500 to 3400 nM.

B2: human SETD3, wild type (recombinant, tag cleaved) (enzyme)
chain: T1 sequence
Work on B2 yielded a Kd [4] of 47 nM, a 2A protease activity towards a FRET peptide of the VP1-2A cis-cleavage site; catalytically active WT 2A alone against its complex with WT SETD3 [5] of 1.5 fold and a kcat/Km of catalytically active WT 2A in complex with WT SETD3 towards a FRET peptide of the VP1-2A cis-cleavage site (1.5 mM^-1 min^-1 for 2A alone) [5] of 38 M⁻¹ s⁻¹.

B3: human SETD3 Y288P (recombinant, tag cleaved) (enzyme)
chain: T1 sequence with Y288P
For B3, the Kd [4] was 2500 nM.

B4: human SETD3 Q257A + V266D (recombinant, tag cleaved) (enzyme)
chain: T1 sequence with Q257A, V266D
For B4, the Kd [4] was 10000 nM.

B5: human SETD3 G361R (recombinant, tag cleaved) (enzyme)
chain: T1 sequence with G361R
For B5, the Kd [4] was 110 nM.

B6: human SETD3 G361R + F409A (recombinant, tag cleaved) (enzyme)
chain: T1 sequence with G361R, F409A
With B6 the Kd [4] was 132 nM.
